Substitutions are numbered along the chain they refer to. Names and notes keep the numbering of the source.
B1: Acanthamoeba polyphaga mimivirus gp275 (encoded by gene R252) (natural protein, UniProt Q5UPU2 1-278, looked up)
chain: MMIHIHQDKKMSTRSNKKSTKTEKVAKATKPVENVEVSDNEVQEQAVKTKASGKKVTAKSTKQSGGKNAKSGSKSAKSGSKSAKSGSKTSKTQSGGKGDESRDRYFKLIDAKTGRSFGRYTGGTPKQAASKGFTKMIHKIKAEGGALPKNGTMKIYLRESTRGSPRKVYAYEATRKQLTEPQKIEIEGSDGKKKVITYRYRNVIHKVSAPLPNQLGGLKTSRSNKKSGETKKSGSRSSGSKRSAKPTKSAKNAKSTGNKKVSTKSAGAKKAPAAKASR
B2: gp275-K126A (natural protein, Acanthamoeba polyphaga mimivirus, UniProt Q5UPU2 1-278, looked up)
chain: B1 chain with K126A

What was measured:
[1] = target: gp275-do, the minimal MC1 domain of gp275 (Acanthamoeba polyphaga mimivirus) (UniProt Q5UPU2); assay: SEC
[2] = target: the molecule itself; assay: SEC

| Molecule | stoichiometry N [1] | stoichiometry N [2] |
| --- | --- | --- |
| gp275-do, the minimal MC1 domain of gp275 (from UniProt Q5UPU2 97-228) (domain or fragment) | 2 | – |
| B1 | – | 4 |
| B2 | – | 4 |
